{"source": "the DeepSol protein solubility set", "assay": "soluble on expression in E. coli; label from the status in PepcDB or PDB records", "data": [{"sequence": "MGSDKIHHHHHHMIDWLYSYPPLYPGILLKRYKRFFADVQLASGEVVTAHCPNTGPMTGVSTLGSVVQLSKSANPKRKLAYTLELIQVHDNEPTWVGVNTALPNQIVKLALAKYLFPELGSYNHIKSEVVYGVDKKSRVDFFLTGSDTERPIYLEVKNTTWAKGTLALFPDTETTRGQKHLRELMTLLPQTRSVMLYFINRGDCTEFAPGDSTDPIYGKLLREAIALGLEVLPCRFDVTPEGIRYLGLAKLVI", "values": [{"measurement": "soluble on expression in E. coli", "result": "not soluble"}]}, {"sequence": "MTKETTQHRSGERIARFADIEVLSYRADLFGTLTPKQRMLCYHLSEAALRGRDITTIQNCRYNLWVRSLMERIYTHLSKSERTDDFALLEEYLFCIWFANGIHHHYSGAKFIARFSPGFLRAALREAGVELEPEEQVLLERVLYDTDFLPKQTEQSGEEDIIKASSVNFYAPGITRAEAESHYKNLIEALPENEKSCPPSFGLNTRLIRSTSGELKDEVCCIDGLYGPAIEAVVASLEAAIPYTENEEQAACIRLLCDYYRTGDIRLYDRFCIRWVENNRTRIDFINGFTEVYADPIGIHGSWEGLVHMQDEEAGRRTRIISEHAGWFEAHSPIDARFRKKNPHGISATVVNVLTIAGDSYPATPIGINLPNADWIRAEHGSKSVTIDNITDAYNHAARGTGLYEEFIPDEEVRRHVELHADLTDSLHTDLHECLGHGSGQLLPGVPGDALGEHASTLEETRADLFALYFLADPKMIELGLLTDPDAYKANYYKYMLNGLMTQLVRIKRGEEIEEAHMRNRALIARYVLEHAERPGAMSLVCEEGKTALVIKDYEAVRAIIAGLLTEVQRIKSEGDYTAGKALVERYAVHVDPLLHEEVLTRYAKLDIAPYKGFVNPRLRPVYNSEGRLTDATIEYTEGYAEQMLRYSAEYSFLPTDSPLLQEARRLRSHLRRAMDGVLSASMREKGLHYGINFGVTREHLLRLARTADASAPLADYLWRRDVRETKILATMIFPAEELTHEQATRLLREADNVELREQLTANLLERMPEAIRSIGRWIESKETTPDMMTGVLTLAARLFTRGIFPEDVPAEKLLTLAILHLSDEEQKAELRRASALLLKRYGRGSAERTKKVLCLLPESSQDTAPVLYELCEDIRFELDFYPKDE", "values": [{"measurement": "soluble on expression in E. coli", "result": "not soluble"}]}, {"sequence": "MGSDKIHHHHHHMKSMWCIHDRIFLKKTREVFDVDIKAYKERVEKAVEYLKGQIDETPEIAIILGSGLSVIADEVEKEGTSKKIPYSEIPGFPISTAPGHKGELIFGKLFGKNVMLMNGRFHYYEGYSMKEVTFPIRVMQLLGVEILIVTNAAGGLNPDFEVGRPMIITDHINFMGDNPLIGPNVDEWGPRFPDMSEPYDKELIELAYNSARELGIPVYQGVYVAVTGPCFETPAELRMLRKFGADAVGMSTVPEVIVARHGQIRVLGISAITDRAVPEDLKPLTAEEVLEVAEKTGRKIAQIIFEVVRKL", "values": [{"measurement": "soluble on expression in E. coli", "result": "not soluble"}]}, {"sequence": "MKLPVREFDAVVIGAGGAGMRAALQISQSGQTCALLSKVFPTRSHTVSAQGGITVALGNTHEDNWEWHMYDTVKGSDYIGDQDAIEYMCKTGPEAILELEHMGLPFSRLDDGRIYQRPFGGQSKNFGGEQAARTAAAADRTGHALLHTLYQQNLKNHTTIFSEWYALDLVKNQDGAVVGCTALCIETGEVVYFKARATVLATGGAGRIYQSTTNAHINTGDGVGMAIRAGVPVQDMEMWQFHPTGIAGAGVLVTEGCRGEGGYLLNKHGERFMERYAPNAKDLAGRDVVARSIMIEIREGRGCDGPWGPHAKLKLDHLGKEVLESRLPGILELSRTFAHVDPVKEPIPVIPTCHYMMGGIPTKVTGQALTVNEKGEDVVVPGLFAVGEIACVSVHGANRLGGNSLLDLVVFGRAAGLHLQESIAEQGALRDASESDVEASLDRLNRWNNNRNGEDPVAIRKALQECMQHNFSVFREGDAMAKGLEQLKVIRERLKNARLDDTSSEFNTQRVECLELDNLMETAYATAVSANFRTESRGAHSRFDFPDRDDENWLCHSLYLPESESMTRRSVNMEPKLRPAFPPKIRTY", "values": [{"measurement": "soluble on expression in E. coli", "result": "soluble"}]}, {"sequence": "MNGTRNWCTLVDVHPEDRAAGSVDILRLTLQGEPTGDELEHIAQKAGRKTYAMVSSHSAGHSLASELVESHDGHEEIIKVYLKGRSGDKMIHEKNINQLKSEVQYIQEARNCLQKLREDISSKLDRNLGDSLHRQEIQVVLEKPNGFSQSPTALYSSPPEVDTCINEDVESLRKTVQDLLAKLQEAKRQHQSDCVAFEVTLSRYQREAEQSNVALQREEDRVEQKEAEVGELQRRLLGMETEHQALLAKVREGEVALEELRSNNADCQAEREKAATLEKEVAGLREKIHHLDDMLKSQQRKVRQMIEQLQNSKAVIQSKDATIQELKEKIAYLEAENLEMHDRMEHLIEKQISHGNFSTQARAKTENPGSIRISKPPSPKPMPVIRVVET", "values": [{"measurement": "soluble on expression in E. coli", "result": "soluble"}]}, {"sequence": "MGQTVNEDSMDVKKENQEKTPQSSTSSVQRDDFHWEEYLKETGSISAPSECFRQSQIPPVNDFKVGMKLEARDPRNATSVCIATVIGITGARLRLRLDGSDNRNDFWRLVDSPDIQPVGTCEKEGDLLQPPLGYQMNTSSWPMFLLKTLNGSEMASATLFKKEPPKPPLNNFKVGMKLEAIDKKNPYLICPATIGDVKGDEVHITFDGWSGAFDYWCKYDSRDIFPAGWCRLTGDVLQPPGTS", "values": [{"measurement": "soluble on expression in E. coli", "result": "soluble"}]}, {"sequence": "MTGVYADAVLVSVTVGDTVTLHTAGVKNLQPADVKWYFNDIRIAQLDGDLRFNCTDIQCNDRTEIFIDRLRLDRKTGALTIVNITNTHSGVYQLVVIGGGGTIFNVTVHDDPATHYNQVKKNQGESVTFNPGVRRDLIVVLKCLLNNTLIAEISVNQSQICADVQCKERFTDRLKLDNESASLTITNTNITDSGNYTSVILISSDRRFSITREKRFSLTVTSLSSSQPSGGAIAGIVVMLLLLL", "values": [{"measurement": "soluble on expression in E. coli", "result": "not soluble"}]}, {"sequence": "MAHHHHHHMKCEVDRPVTQNTERNGSEGNVAKNYMTHLYQFQNNEMKKIDASYFENKYLGLFFGASWCRYCVTFIQNINFFKKNFPFIEIIYIPFDKTYNDYVAFLKATDFYSLPFDNYLYICKKFNIKNLPSFMIIAPNNNVLVKDAVQLIKTDTYVNNFKSLVKNYTVHPSHFKIGNRFFDLFCA", "values": [{"measurement": "soluble on expression in E. coli", "result": "soluble"}]}, {"sequence": "MKGFGMFRFRRTFVPQIDMRNCGVAALASVAKYYGSDYSLAHLRELAKTNKEGTTALGLVEAAKKIGFETRAIKAEMSLFEMEDVPYPFIAHVNKDGKLQHYYVIYKSTKDYLIIGDPDPSVKVTKMTKERFEKEWTGVTLFMGPEPS", "values": [{"measurement": "soluble on expression in E. coli", "result": "not soluble"}]}, {"sequence": "MGSDKIHHHHHHMKILQIVPSISLIYGGPSQMVLGLAPALVKEGVEVTILTTDSNGDNGQTPLDVPLNRPIKQDGYEIIYFRCAPFRRYKFSLDLLKWLKRHAHEFDLAHIHALFSPIISAAAIVCRQQKLPYIFRPLGTLDPADLRKKKQLKQLYVAIIERQNLASAAAIHFTSEQEAKISERFGVSTPDLVIPLGVIPRQSSLKNVCSQLEIPKDVPLVLFMSRIDPKKGLNLLIPALEKLLAVGYKFHFVLAGTNPQDPDYEQKIISQIQNSPLRSHTTITGFVTGELKVSLLQAADLFVLPSYYENFGIAVAEAMVAGVPVVISDQVHICQQIRDSESGWVGATDVQALVELLQAALQNPAERQRRGLNAQKYALENFSWDAIARQTIQAYQKILANK", "values": [{"measurement": "soluble on expression in E. coli", "result": "not soluble"}]}, {"sequence": "MNINILLSTYNGERFLAEQIQSIQRQTVNDWTLLIRDDGSTDGTQDIIRTFVKEDKRIQWINEGQTENLGVIKNFYTLLKHQKADVYFFSDQDDIWLDNKLEVTLLEAQKHEMTAPLLVYTDLKVVTQHLAVCHDSMIKTQSGHANTSLLQELTENTVTGGTMMITHALAEEWTTCDGLLMHDWYLALLASAIGKLVYLDIPTELYRQHDANVLGARTWSKRMKNWLTPHHLVNKYWWLITSSQKQAQLLLDLPLKPNDHELVTAYVSLLDMPFTKRLATLKRYGFRKNRIFHTFIFRSLVVTLFGYRRK", "values": [{"measurement": "soluble on expression in E. coli", "result": "not soluble"}]}, {"sequence": "MNVPFWTEEHVRATLPERDAESHKGTYGTALLLAGSDDMPGAALLAGLGAMRSGLGKLVIGTSENVIPLIVPVLPEATYWRDGWKKAADAQLEETYRAIAIGPGLPQTESVQQAVDHVLTADCPVILDAGALAKRTYPKREGPVILTPHPGEFFRMTGVPVNELQKKRAEYAKEWAAQLQTVIVLKGNQTVIAFPDGDCWLNPTGNGALAKGGTGDTLTGMILGMLCCHEDPKHAVLNAVYLHGACAELWTDEHSAHTLLAHELSDILPRVWKRFELEHHHHHH", "values": [{"measurement": "soluble on expression in E. coli", "result": "soluble"}]}, {"sequence": "MRAVAEQARVKTLRIQPRAMALPPDELAECARTAVNEALADLRSAMPSDAGPGVDPAAALEYLNQVQVEGLRTLELVTGALEQAMAQIRQTAAAHGTPAPHGLHRIVEEVQQTLAAVSRPPQEAPDDLEGTAEAAQGRVRAVAEPGGRIRSLTVQARAMRSPSQELAEHIVTAVNNALDDLQAKTRRETEIVEIDQRRLDELRESAMRQSAEFMRSVSDMINSIQPR", "values": [{"measurement": "soluble on expression in E. coli", "result": "not soluble"}]}, {"sequence": "MSEQYTTGVVVTGKVTGIQDYGAFVALDAETQGLVHISEITNGYVKDIHDFLKVGDTVEVKVLSIDEEHRKMSLSLKAAKRKQGRILIPNPSENGFNTLREKLTEWIEESELTK", "values": [{"measurement": "soluble on expression in E. coli", "result": "not soluble"}]}, {"sequence": "MPAAPLCSPFPSPPPSFHTASLPFSIHAHHSPLPCDLDPPLYLAETVSLLEEWGPPSSCPMQCKLTSHPARLTHLPPCLWGFAVALKPSWAGLAPSLLPPPRMSLCRPLSFLRHQCPWLPWQAHQGLVPWSPSMVAAACIVSPSGHCRCQPFIPHVFLGHGGLTSVSGECG", "values": [{"measurement": "soluble on expression in E. coli", "result": "soluble"}]}, {"sequence": "MGSDKIHHHHHHMRHLKAFYVFHITAESSSYSQAAEKLHITHGAVSKQIKLLENHLSQILFYKQGRGMCLTQEGELLKRYTDIAFNTLDSGVKQLTRESHHYLEVSCEPTLTMRWLMPRLASFFQLTGIDVRLSTAGGPVKLAESGLSLAIRRDDFHIPPEYNKHNLVSEWAGPVFSPEYWCQIQQNWGDIVLLHSDSRPSAWSDWSQRSGHNFSTNKSKSFEHFYFCLQAAVDGLGGAIGSYPLIVDDLTSGRLVAPFGFIPSGHHYVLLSHTEKLVNNELSFFNWLEDTLSLCQPKTAKAAKPV", "values": [{"measurement": "soluble on expression in E. coli", "result": "not soluble"}]}, {"sequence": "MRWWLCILVLLLAVPAQALLMPGTRVVEEHHANPFEIDVSSIDNLGDIPVDDPSDGINWSFLYLPYPNCTSGTGDATFIAVSRGSSNNILIYLEGGGACSDFYTCGMGQYVDHASCNATPTATVTTLNPNPWVVSYHYRYGIFDRANPDNPFRDWTIVFVPYSTGDVHWGNRVVKYCYYNPYNLSQVDCSINFTVHHVGFVNAITAIRWAAEQGDFDKVVIAGSSAGGYGTIVHSFYAREIFGKPILAIDDAGPGLNVNQSNFTIQMLFGIETLNETWGAYDNLPDDAQDFLGDRDPIFFVDYFLDHYPDSRFALYEDQMDYTIGVFFNGYTEEQFRDLLLNKACEIKAMHRHNFFRYLPLGTEHTILAYPWFYEKNIHNYRVYEWVWDLIKGKKRDAVELDGVRGIYLACPPGIFAKLEHHHHHH", "values": [{"measurement": "soluble on expression in E. coli", "result": "not soluble"}]}, {"sequence": "MRGDDMHIYELVSRDRTHPVRIYLLHSEYWTEDEFYNLLLEAFQRSSASDWHLQILEVSKYLVTAHGFVEAGGLQEIGFPGELSKTEVRRRINAFLGKDRSD", "values": [{"measurement": "soluble on expression in E. coli", "result": "soluble"}]}, {"sequence": "GMSAPVTLINPFKVPADKLEAAIEYWEAHRDFMAQQPGYLSTQLHQSIDEGATYQLINVAIWQSEADFYQAAQKMRQALGHVQVEGLCGNPALYRVIRT", "values": [{"measurement": "soluble on expression in E. coli", "result": "soluble"}]}, {"sequence": "MNNFVKLGLTTGVVLSAIIPYGGVHAATEDLKVETKEDTFRTGNLTAPSQKSAENVVKDALKGKTEQALSSKQVNTESKVNYNVTQSRKSYDGTTLVRLQQTYEGRDVYGYQLTAHINDDGVLTSISGDSAQDLQQQEDLKQPIILSEEDAKKQLFKIYGDNLTFVEEPEIKQVVYVDENTNKATNAYQITFSASTPEYVSGTVLIDAFVGDLLKELVQKLGIQVDSSIVQSATANKSQDPSKLTGTGKDDLGMNRTFGITQRSDGTYTLADYSRGKGIETYTANYKDYNNYRRNVWGYLDDLVTSNSTNFTDPKAVSAHYLATKVYDFYKEKYSRNSFDNNGQKVISVVHGWNTNGKNIGNPKQWFNAFSNGAMLVYGDPIVRAFDVAGHEFTHAVTRNESGLEYAGEAGAINEALSDILGVAVEKYANNGKFNWTMGEQSGRIFRDMKNPSSISSRYPEDYRHYNNLPIDADHDYGGVHTNSSIINKVAYLIASGGNHNGVNVQGIGEDKMFDIFYYANTDELNMTSDFKELKEACIRVAMNLYGKDSLEVQAVQQAFKAAYI", "values": [{"measurement": "soluble on expression in E. coli", "result": "not soluble"}]}]}
